From patent US11648290B2, “Cartilage-homing peptides” (FRED HUTCHINSON CANCER CENTER, priority 2015, dated 2023) come the findings set out here.

One series addresses T1, trypsin (Bos taurus, UniProt P00760).
T1 construct: gene PRSS1
T1 sequence (P00760 24-246): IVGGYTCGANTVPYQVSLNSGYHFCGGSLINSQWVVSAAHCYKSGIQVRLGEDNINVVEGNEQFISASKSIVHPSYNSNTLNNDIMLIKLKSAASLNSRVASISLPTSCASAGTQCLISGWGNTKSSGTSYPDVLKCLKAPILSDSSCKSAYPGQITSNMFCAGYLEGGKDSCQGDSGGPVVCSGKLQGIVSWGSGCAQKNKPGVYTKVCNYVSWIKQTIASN
As to the kind of experiment: Peptide resistance to trypsin digestion (RP-HPLC). In kind it is in vitro ADME. The protocol: Various peptides were suspended in 500 μl of ddH2O at a stock concentration of 2 mg/ml. Reactions were prepared with 12.5 μg peptide and 5 μg trypsin in 25 mM Tris/75 mM NaCl buffer (pH 7.0) and incubated for 30 minutes at 37.5° C. Reactions were quenched with 5 μg of soybean trypsin inhibitor and 10 mM dithiothreitol (DTT). Reversed phase HPLC (RP-HPLC) was run on samples using an Agilent 1260 HPLC equipped with a C-18 Poroshell 120B column. Sample were analyzed by a gradient method with a mobile phase of Solvent A (water with 0.1% TFA) and Solvent B (acetonitrile with 0.1% TFA). Solvent B was ramped up from 5%-45% of the mobile phase over a period of 10 minutes.

Series [1] in a line: Temperature stability of peptides (RP-HPLC). It counts as physicochemical. The protocol:
This example illustrates peptide stability at high temperatures. Peptides were first suspended in 500 μl of ddH2O to a stock concentration of 2 mg/ml. Reactions were prepared by adding 6.25 μl of peptide from the stock solution with 95 μl ddH2O and incubated at room temperature, 70° C., or 100° C. for one hour in a Thermocycler. RP-HPLC was then run on samples using an Agilent 1260 HPLC equipped with a C-18 Poroshell 120B column. Sample were analyzed by a gradient method with a mobile phase of Solvent A (water with 0.1% TFA) and Solvent B (acetonitrile with 0.1% TFA). Solvent B was ramped up from 5%-45% of the mobile phase over a period of 10 minutes.
Peptides of SEQ ID NO: 28 and SEQ ID NO: 483 were analyzed by HPLC after incubation at room temperature (25° C.), 70° C., or 100° C. for one hour.

As for “GSISIGIKCSPSIDLCEGQCRIRKYFTGYCSGDTCHCSG [SEQ ID NO: 483]”, the “Resistance to degradation by trypsin” value with trypsin (12.5 ug peptide, 5 ug trypsin, pH 7.0, 30 minutes at 37.5 C) is “partially resistant to degradation by trypsin”. The “Resistance to reduction by DTT (FIG. 54)” value in the series with trypsin (10 mM DTT) is given as “partially resistant to reduction by DTT”. Moreover, the “Stability after heat incubation (HPLC)” value is “resistant to heat-induced degradation” in series [1] (70 C for 1 hour) and “underwent various degrees of degradation” in series [1] (100 C for 1 hour).
